From US20080300206A1
Each block holds one substance with its values, some of them ahead of it.

Target: recombinant wild-type human alpha-synuclein (human) (UniProt P37840)
Experiment: cell-based or functional assay

Chain of Polo like kinase 2 (PLK2) (Q9NYY3 whole entry): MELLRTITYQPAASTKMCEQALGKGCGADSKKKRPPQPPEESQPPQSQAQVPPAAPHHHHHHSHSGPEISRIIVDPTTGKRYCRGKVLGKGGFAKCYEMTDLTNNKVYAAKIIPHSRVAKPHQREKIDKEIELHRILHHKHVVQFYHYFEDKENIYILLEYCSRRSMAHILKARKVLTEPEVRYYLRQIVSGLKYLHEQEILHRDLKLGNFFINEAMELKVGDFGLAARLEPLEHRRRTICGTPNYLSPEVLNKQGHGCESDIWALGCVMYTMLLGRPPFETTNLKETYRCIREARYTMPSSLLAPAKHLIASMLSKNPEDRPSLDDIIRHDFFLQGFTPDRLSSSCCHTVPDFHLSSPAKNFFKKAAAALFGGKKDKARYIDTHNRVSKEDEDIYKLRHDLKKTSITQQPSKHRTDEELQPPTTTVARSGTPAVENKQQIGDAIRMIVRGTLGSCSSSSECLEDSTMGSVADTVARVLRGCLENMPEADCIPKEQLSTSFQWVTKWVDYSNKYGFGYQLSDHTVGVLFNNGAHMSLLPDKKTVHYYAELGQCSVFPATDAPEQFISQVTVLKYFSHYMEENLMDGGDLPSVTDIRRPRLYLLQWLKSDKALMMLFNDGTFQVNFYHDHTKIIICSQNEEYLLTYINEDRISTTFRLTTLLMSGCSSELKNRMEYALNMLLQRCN
Chain of G protein-coupled receptor kinase 6 (GRK6) (P43250 whole entry): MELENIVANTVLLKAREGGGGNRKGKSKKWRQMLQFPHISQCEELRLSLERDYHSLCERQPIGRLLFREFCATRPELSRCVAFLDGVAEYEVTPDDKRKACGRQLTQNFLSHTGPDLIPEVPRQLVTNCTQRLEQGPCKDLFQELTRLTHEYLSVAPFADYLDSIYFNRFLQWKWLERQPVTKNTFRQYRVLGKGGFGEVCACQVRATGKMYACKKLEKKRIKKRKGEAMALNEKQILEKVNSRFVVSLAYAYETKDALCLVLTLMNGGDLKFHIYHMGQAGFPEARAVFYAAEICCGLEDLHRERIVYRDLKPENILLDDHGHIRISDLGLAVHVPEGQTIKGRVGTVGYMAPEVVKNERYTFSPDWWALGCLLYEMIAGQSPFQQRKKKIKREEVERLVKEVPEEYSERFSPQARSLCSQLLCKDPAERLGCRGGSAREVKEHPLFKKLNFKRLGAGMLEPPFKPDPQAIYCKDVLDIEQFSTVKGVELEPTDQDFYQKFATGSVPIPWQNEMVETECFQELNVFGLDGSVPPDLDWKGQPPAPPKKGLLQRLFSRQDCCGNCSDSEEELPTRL
Chain of Aortic preferentially expressed gene 1 (APEG1) (Q15772 whole entry): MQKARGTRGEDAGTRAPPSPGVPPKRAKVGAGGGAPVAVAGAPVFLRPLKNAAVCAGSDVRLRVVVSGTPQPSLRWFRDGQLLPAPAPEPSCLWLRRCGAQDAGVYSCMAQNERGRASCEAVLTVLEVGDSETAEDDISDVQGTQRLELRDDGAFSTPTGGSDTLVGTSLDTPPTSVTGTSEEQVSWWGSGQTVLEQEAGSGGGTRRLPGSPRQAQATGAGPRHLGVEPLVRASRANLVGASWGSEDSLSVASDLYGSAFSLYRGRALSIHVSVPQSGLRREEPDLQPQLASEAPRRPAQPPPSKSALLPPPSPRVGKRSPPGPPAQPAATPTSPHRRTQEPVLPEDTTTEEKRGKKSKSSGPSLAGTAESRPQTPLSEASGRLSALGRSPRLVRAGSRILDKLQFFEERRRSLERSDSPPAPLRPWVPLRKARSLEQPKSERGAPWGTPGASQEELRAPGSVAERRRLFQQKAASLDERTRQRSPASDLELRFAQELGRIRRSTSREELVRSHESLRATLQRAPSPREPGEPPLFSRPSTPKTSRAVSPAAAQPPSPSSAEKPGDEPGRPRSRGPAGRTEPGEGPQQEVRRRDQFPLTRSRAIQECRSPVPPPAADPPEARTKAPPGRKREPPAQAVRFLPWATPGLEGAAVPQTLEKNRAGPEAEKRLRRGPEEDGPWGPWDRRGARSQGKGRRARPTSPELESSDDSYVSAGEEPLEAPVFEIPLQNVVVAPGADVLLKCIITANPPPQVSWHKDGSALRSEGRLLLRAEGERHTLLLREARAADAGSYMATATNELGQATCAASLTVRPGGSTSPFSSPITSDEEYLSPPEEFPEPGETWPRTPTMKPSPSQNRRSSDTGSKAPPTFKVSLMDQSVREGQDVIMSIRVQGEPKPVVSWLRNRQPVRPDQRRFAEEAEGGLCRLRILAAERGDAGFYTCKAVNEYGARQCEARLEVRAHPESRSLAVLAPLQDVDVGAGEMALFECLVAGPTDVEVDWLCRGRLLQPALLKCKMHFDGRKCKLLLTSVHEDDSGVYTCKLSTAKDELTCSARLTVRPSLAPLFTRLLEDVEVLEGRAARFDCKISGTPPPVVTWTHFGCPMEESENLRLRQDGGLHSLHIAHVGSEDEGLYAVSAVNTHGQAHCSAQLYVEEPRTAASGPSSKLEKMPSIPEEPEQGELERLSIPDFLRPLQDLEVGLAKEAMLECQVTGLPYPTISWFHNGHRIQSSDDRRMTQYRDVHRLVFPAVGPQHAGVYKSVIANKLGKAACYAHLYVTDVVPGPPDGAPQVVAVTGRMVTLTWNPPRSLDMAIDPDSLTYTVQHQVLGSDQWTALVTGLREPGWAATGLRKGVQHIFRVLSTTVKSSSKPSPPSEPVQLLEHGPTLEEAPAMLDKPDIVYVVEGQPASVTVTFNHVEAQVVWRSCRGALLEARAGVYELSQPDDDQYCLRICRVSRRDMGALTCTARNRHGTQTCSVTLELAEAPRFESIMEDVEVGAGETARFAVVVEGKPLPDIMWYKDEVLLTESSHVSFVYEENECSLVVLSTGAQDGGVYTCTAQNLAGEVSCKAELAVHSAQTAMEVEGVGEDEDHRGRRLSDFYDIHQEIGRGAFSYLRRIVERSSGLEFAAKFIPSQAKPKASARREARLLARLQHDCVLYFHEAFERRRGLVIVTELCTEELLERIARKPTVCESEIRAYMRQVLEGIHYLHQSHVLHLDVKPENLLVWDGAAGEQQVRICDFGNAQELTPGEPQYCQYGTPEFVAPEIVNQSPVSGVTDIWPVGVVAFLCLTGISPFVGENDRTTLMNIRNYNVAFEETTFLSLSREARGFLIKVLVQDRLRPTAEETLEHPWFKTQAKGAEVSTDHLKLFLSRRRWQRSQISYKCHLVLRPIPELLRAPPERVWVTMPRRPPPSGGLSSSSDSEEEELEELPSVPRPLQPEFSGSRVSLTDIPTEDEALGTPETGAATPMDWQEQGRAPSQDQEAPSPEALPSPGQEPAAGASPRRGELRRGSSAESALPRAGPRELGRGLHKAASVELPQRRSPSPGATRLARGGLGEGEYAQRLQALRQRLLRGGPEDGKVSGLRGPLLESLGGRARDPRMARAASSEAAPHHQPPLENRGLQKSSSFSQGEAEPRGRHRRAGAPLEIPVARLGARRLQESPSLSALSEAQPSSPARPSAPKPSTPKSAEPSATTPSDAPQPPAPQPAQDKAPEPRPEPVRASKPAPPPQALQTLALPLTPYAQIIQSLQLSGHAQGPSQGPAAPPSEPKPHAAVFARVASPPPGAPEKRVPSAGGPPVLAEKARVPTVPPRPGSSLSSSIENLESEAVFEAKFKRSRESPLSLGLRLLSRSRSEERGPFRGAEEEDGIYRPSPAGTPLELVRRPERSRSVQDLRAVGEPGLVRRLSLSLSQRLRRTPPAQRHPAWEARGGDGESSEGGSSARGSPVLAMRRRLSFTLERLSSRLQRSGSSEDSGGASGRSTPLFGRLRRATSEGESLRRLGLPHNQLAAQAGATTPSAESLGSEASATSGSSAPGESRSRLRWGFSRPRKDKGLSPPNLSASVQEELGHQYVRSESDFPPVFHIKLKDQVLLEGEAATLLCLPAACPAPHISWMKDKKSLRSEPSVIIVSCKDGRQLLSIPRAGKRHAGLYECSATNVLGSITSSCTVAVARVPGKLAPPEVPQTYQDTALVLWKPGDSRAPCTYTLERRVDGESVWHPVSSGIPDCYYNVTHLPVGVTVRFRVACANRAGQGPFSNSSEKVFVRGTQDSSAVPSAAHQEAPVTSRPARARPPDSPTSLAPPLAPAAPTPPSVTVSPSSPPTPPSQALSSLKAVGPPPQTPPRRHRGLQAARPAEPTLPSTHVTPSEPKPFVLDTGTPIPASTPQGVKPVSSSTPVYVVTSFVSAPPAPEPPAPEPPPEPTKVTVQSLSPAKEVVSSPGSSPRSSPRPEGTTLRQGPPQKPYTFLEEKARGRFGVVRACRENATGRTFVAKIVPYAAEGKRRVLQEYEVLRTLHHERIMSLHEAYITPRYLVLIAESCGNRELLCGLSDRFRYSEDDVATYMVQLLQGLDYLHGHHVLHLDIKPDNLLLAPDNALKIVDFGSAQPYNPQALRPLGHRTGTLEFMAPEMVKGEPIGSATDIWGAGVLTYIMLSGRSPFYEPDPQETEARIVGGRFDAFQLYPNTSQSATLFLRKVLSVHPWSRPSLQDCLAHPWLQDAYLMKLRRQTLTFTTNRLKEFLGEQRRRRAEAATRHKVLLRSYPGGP
Chain of CDC7 cell division cycle 7-like 1 (CDC7L1) (O00311 whole entry): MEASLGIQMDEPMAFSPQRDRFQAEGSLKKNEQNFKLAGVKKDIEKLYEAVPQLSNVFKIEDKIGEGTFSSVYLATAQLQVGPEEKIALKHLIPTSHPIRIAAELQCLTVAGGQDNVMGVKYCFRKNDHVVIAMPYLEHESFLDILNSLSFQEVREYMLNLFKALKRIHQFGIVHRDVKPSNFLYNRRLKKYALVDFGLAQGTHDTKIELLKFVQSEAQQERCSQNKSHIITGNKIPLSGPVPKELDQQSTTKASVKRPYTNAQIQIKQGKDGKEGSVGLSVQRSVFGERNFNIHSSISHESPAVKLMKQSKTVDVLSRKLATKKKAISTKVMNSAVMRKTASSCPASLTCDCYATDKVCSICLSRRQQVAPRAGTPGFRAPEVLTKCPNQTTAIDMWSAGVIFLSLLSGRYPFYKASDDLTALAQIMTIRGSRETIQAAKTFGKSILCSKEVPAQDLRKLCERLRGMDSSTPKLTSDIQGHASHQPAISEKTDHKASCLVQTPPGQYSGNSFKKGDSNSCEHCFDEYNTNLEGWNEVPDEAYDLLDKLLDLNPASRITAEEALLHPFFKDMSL

percentage of phospho-synuclein, ELISA, PEAK-Syn cells transfected with kinase cDNA: 8.9%
Substance: Aortic preferentially expressed gene 1 (APEG1) (from UniProt Q15772 1-3267) (enzyme)

fold increase of percent phospho-synuclein, cells transfected with PLK2 cDNA: 4 fold
fold increase of phospho-synuclein over untransfected cells, ELISA, 293-synuclein cells: 4.3 fold
percent phospho-synuclein, ELISA, cells transfected with PLK2 cDNA: 33.2%
Substance: Polo like kinase 2 (PLK2) (from UniProt Q9NYY3 1-685) (enzyme)

fold increase of phospho-synuclein, HEK-synuclein cells: 2 fold
percent phospho-synuclein, ELISA, cells transfected with GPRK6 cDNA: 18.9%
Substance: G protein-coupled receptor kinase 6 (GRK6) (from UniProt P43250 1-576) (enzyme)

percentage of phospho-synuclein, ELISA, PEAK-Syn cells transfected with kinase cDNA: 8.9%
Substance: CDC7 cell division cycle 7-like 1 (CDC7L1) (from UniProt O00311 1-574) (enzyme)

percentage of phospho-synuclein, ELISA, PEAK-Syn cells transfected with kinase cDNA: 8.9%
Substance: Protein kinase, cGMP-dependent, regulatory, Type I (PRKG1) (from UniProt Q13976 2-671) (enzyme)
